Self-aminoacylation data for 13 sequences are collected here from the supplement of paper PMC9233669.

One data set concerns biotinyl-Phe-oxazolone. The data set can be described thus: self-aminoacylation, catalytic enhancement (BFO) (fold over background); higher = more active; k-Seq, kA / k0A0; sequences stand for … in GGGAAUGGAUCCACAUCUACGAAUUC…UUCACUGCAGACUUGACGAAGCUG
The essentials:
(§1)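 Mutagenized RNA pools (0.43 μM; 21-nt variable region) were treated with 2–1250 μM of each biotinyl-aminoacyl-oxazolone. Conditions were 50 μL HEPES/NaCl/KCl/MgCl2/CaCl2 buffer, 5% acetonitrile, pH 6.9–7.0, room temperature, 90 minutes. Catalytic enhancement, the median kA relative to the uncatalyzed rate, was derived from streptavidin capture, qPCR and Illumina sequencing.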

The subject of a further data set is biotinyl-Ile-oxazolone. The data set is described as follows: self-aminoacylation, catalytic enhancement (BIO) (fold over background); higher = more active; k-Seq, kA / k0A0; sequences stand for … in GGGAAUGGAUCCACAUCUACGAAUUC…UUCACUGCAGACUUGACGAAGCUG
In short, it runs like this:
as §1

A further data set concerns biotinyl-Met-oxazolone. The data set is described as follows: self-aminoacylation, catalytic enhancement (BMO) (fold over background); higher = more active; k-Seq, kA / k0A0; sequences stand for … in GGGAAUGGAUCCACAUCUACGAAUUC…UUCACUGCAGACUUGACGAAGCUG
In short, it runs like this:
as §1

Another data set relates to biotinyl-Val-oxazolone. The data set is described as follows: self-aminoacylation, catalytic enhancement (BVO) (fold over background); higher = more active; k-Seq, kA / k0A0; sequences stand for … in GGGAAUGGAUCCACAUCUACGAAUUC…UUCACUGCAGACUUGACGAAGCUG
The essentials: as §1

The next data set deals with biotinyl-Leu-oxazolone. The data set is described as follows: self-aminoacylation, catalytic enhancement (BLO) (fold over background); higher = more active; k-Seq, kA / k0A0; sequences stand for … in GGGAAUGGAUCCACAUCUACGAAUUC…UUCACUGCAGACUUGACGAAGCUG
The essentials: as §1

A further data set relates to biotinyl-Trp-oxazolone. The data set can be described thus: self-aminoacylation, catalytic enhancement (BWO) (fold over background); higher = more active; k-Seq, kA / k0A0; sequences stand for … in GGGAAUGGAUCCACAUCUACGAAUUC…UUCACUGCAGACUUGACGAAGCUG
In short, it runs like this:
as §1

Variants at the floor of the assay were thinned out.

“UUUCACCUAGGUCAUCGGGCG [Fam2.2 aminoacylation ribozyme variant]”: the self-aminoacylation with biotinyl-Phe-oxazolone turned out to be 4.77; in the data set with biotinyl-Ile-oxazolone, 3.06; in the data set on biotinyl-Met-oxazolone, 4.77; in the data set on biotinyl-Val-oxazolone, 3.19; in the data set with biotinyl-Leu-oxazolone, 5.21; in the data set with biotinyl-Trp-oxazolone it was 4.57.

As to “AUUACCCUAGCCAUCGAGUGA [Fam2.1 aminoacylation ribozyme variant]”, the self-aminoacylation in the data set on biotinyl-Phe-oxazolone came to 9; in the data set with biotinyl-Ile-oxazolone, 2.02; in the data set with biotinyl-Met-oxazolone, 3.86; in the data set with biotinyl-Val-oxazolone, 2.13; with biotinyl-Leu-oxazolone, 3.46; with biotinyl-Trp-oxazolone, 4.91.

In the case of “UUACUUCAAACAAUCGGUCUG [Fam1A.1 aminoacylation ribozyme variant]”, the self-aminoacylation in the data set on biotinyl-Phe-oxazolone came to 37.4; in the data set with biotinyl-Ile-oxazolone it was 1.3; with biotinyl-Met-oxazolone, 1.29; in the data set with biotinyl-Val-oxazolone, 1.22; in the data set on biotinyl-Leu-oxazolone, 1.69; in the data set on biotinyl-Trp-oxazolone, 20.7.

In the case of “CCACACCGCAAGCAAUCGGUC [Fam1B.1 aminoacylation ribozyme variant]”, the self-aminoacylation came out at 0.867 in the data set with biotinyl-Phe-oxazolone; 1.12 in the data set on biotinyl-Ile-oxazolone; 1.13 in the data set with biotinyl-Met-oxazolone; 1.13 in the data set on biotinyl-Val-oxazolone; 0.882 with biotinyl-Leu-oxazolone; 1.02 in the data set on biotinyl-Trp-oxazolone.

Consider “CUUACCCUCGUCAUCGAGUGA [Fam2.1 aminoacylation ribozyme variant]”, for which the self-aminoacylation in the data set on biotinyl-Phe-oxazolone is 3.66; with biotinyl-Ile-oxazolone, 1.82; in the data set with biotinyl-Met-oxazolone, 2.42; in the data set on biotinyl-Val-oxazolone, 1.92; in the data set with biotinyl-Leu-oxazolone, 2.47; in the data set with biotinyl-Trp-oxazolone, 3.21.

As to “AUUCACUUAGGUCAUCGGGUG [Fam2.2 aminoacylation ribozyme variant]”, the self-aminoacylation turned out to be 48.3 in the data set on biotinyl-Phe-oxazolone; 3.87 in the data set on biotinyl-Ile-oxazolone; 6.36 in the data set on biotinyl-Met-oxazolone; 3.86 in the data set on biotinyl-Val-oxazolone; 8.1 in the data set with biotinyl-Leu-oxazolone; 6.28 in the data set on biotinyl-Trp-oxazolone.

As for “CCACACUUGAAGCCAUCGGUC [Fam1B.1 aminoacylation ribozyme variant]”, the self-aminoacylation amounted to 0.99 in the data set with biotinyl-Phe-oxazolone; 1.24 in the data set on biotinyl-Ile-oxazolone; 1.24 in the data set with biotinyl-Met-oxazolone; 1.47 in the data set with biotinyl-Val-oxazolone; 0.811 in the data set with biotinyl-Leu-oxazolone; 1.6 in the data set with biotinyl-Trp-oxazolone.

On to “CUACUUUAACCAAUCGGUCUG [Fam1A.1 aminoacylation ribozyme variant]”, for which the self-aminoacylation in the data set on biotinyl-Phe-oxazolone stood at 1.22; in the data set with biotinyl-Ile-oxazolone, 0.883; with biotinyl-Met-oxazolone it was 0.779; with biotinyl-Val-oxazolone it was 0.842; in the data set with biotinyl-Leu-oxazolone, 0.662; in the data set with biotinyl-Trp-oxazolone it was 0.949.

As for “CUACUACAAACAAACGGUCUG [Fam1A.1 aminoacylation ribozyme variant]”, the self-aminoacylation in the data set on biotinyl-Phe-oxazolone was found to be 0.827; with biotinyl-Ile-oxazolone, 0.874; in the data set with biotinyl-Met-oxazolone it was 0.673; with biotinyl-Val-oxazolone it was 0.857; in the data set on biotinyl-Leu-oxazolone it was 0.648; in the data set on biotinyl-Trp-oxazolone it was 0.575.

As for “AUUCACCUAGGUGAUCGGGGG [Fam2.2 aminoacylation ribozyme variant]”, the self-aminoacylation in the data set with biotinyl-Phe-oxazolone is 21.6; in the data set with biotinyl-Ile-oxazolone, 5.84; in the data set with biotinyl-Met-oxazolone, 4.53; in the data set on biotinyl-Val-oxazolone, 4.72; in the data set on biotinyl-Leu-oxazolone it was 5.33; with biotinyl-Trp-oxazolone, 7.47.

Regarding “AUUCCCCUGGUUAUCGAGUGA [Fam2.1 aminoacylation ribozyme variant]”, the self-aminoacylation was 82.2 in the data set on biotinyl-Phe-oxazolone; 5.07 in the data set on biotinyl-Ile-oxazolone; 10.2 with biotinyl-Met-oxazolone; 5.49 in the data set with biotinyl-Val-oxazolone; 9.8 in the data set with biotinyl-Leu-oxazolone; 14.5 with biotinyl-Trp-oxazolone.

With “AUUCACCUAGCUCAUUGGGUG [Fam2.2 aminoacylation ribozyme variant]”, the self-aminoacylation amounted to 5.14 with biotinyl-Phe-oxazolone; 1.44 in the data set with biotinyl-Ile-oxazolone; 1.89 in the data set with biotinyl-Met-oxazolone; 1.69 in the data set with biotinyl-Val-oxazolone; 1.62 with biotinyl-Leu-oxazolone; 2.07 with biotinyl-Trp-oxazolone.

For “AUUCACCUAGAUCCUCGGGUG [Fam2.2 aminoacylation ribozyme variant]”, the self-aminoacylation in the data set on biotinyl-Phe-oxazolone was 22.6; in the data set with biotinyl-Ile-oxazolone, 2.22; in the data set on biotinyl-Met-oxazolone, 3.57; with biotinyl-Val-oxazolone, 1.99; in the data set with biotinyl-Leu-oxazolone it was 4.04; in the data set on biotinyl-Trp-oxazolone, 3.16.
